The target of the assay is oxidized LDL (oxLDL) (UniProt P04114 28-4563, limits assumed, oxidized LDL; kind of oxidation of the preparation used in the assay not stated). The assay is described as follows: cell-based or functional assay.
oxidized LDL (oxLDL), sequence (P04114 28-4563 limits assumed): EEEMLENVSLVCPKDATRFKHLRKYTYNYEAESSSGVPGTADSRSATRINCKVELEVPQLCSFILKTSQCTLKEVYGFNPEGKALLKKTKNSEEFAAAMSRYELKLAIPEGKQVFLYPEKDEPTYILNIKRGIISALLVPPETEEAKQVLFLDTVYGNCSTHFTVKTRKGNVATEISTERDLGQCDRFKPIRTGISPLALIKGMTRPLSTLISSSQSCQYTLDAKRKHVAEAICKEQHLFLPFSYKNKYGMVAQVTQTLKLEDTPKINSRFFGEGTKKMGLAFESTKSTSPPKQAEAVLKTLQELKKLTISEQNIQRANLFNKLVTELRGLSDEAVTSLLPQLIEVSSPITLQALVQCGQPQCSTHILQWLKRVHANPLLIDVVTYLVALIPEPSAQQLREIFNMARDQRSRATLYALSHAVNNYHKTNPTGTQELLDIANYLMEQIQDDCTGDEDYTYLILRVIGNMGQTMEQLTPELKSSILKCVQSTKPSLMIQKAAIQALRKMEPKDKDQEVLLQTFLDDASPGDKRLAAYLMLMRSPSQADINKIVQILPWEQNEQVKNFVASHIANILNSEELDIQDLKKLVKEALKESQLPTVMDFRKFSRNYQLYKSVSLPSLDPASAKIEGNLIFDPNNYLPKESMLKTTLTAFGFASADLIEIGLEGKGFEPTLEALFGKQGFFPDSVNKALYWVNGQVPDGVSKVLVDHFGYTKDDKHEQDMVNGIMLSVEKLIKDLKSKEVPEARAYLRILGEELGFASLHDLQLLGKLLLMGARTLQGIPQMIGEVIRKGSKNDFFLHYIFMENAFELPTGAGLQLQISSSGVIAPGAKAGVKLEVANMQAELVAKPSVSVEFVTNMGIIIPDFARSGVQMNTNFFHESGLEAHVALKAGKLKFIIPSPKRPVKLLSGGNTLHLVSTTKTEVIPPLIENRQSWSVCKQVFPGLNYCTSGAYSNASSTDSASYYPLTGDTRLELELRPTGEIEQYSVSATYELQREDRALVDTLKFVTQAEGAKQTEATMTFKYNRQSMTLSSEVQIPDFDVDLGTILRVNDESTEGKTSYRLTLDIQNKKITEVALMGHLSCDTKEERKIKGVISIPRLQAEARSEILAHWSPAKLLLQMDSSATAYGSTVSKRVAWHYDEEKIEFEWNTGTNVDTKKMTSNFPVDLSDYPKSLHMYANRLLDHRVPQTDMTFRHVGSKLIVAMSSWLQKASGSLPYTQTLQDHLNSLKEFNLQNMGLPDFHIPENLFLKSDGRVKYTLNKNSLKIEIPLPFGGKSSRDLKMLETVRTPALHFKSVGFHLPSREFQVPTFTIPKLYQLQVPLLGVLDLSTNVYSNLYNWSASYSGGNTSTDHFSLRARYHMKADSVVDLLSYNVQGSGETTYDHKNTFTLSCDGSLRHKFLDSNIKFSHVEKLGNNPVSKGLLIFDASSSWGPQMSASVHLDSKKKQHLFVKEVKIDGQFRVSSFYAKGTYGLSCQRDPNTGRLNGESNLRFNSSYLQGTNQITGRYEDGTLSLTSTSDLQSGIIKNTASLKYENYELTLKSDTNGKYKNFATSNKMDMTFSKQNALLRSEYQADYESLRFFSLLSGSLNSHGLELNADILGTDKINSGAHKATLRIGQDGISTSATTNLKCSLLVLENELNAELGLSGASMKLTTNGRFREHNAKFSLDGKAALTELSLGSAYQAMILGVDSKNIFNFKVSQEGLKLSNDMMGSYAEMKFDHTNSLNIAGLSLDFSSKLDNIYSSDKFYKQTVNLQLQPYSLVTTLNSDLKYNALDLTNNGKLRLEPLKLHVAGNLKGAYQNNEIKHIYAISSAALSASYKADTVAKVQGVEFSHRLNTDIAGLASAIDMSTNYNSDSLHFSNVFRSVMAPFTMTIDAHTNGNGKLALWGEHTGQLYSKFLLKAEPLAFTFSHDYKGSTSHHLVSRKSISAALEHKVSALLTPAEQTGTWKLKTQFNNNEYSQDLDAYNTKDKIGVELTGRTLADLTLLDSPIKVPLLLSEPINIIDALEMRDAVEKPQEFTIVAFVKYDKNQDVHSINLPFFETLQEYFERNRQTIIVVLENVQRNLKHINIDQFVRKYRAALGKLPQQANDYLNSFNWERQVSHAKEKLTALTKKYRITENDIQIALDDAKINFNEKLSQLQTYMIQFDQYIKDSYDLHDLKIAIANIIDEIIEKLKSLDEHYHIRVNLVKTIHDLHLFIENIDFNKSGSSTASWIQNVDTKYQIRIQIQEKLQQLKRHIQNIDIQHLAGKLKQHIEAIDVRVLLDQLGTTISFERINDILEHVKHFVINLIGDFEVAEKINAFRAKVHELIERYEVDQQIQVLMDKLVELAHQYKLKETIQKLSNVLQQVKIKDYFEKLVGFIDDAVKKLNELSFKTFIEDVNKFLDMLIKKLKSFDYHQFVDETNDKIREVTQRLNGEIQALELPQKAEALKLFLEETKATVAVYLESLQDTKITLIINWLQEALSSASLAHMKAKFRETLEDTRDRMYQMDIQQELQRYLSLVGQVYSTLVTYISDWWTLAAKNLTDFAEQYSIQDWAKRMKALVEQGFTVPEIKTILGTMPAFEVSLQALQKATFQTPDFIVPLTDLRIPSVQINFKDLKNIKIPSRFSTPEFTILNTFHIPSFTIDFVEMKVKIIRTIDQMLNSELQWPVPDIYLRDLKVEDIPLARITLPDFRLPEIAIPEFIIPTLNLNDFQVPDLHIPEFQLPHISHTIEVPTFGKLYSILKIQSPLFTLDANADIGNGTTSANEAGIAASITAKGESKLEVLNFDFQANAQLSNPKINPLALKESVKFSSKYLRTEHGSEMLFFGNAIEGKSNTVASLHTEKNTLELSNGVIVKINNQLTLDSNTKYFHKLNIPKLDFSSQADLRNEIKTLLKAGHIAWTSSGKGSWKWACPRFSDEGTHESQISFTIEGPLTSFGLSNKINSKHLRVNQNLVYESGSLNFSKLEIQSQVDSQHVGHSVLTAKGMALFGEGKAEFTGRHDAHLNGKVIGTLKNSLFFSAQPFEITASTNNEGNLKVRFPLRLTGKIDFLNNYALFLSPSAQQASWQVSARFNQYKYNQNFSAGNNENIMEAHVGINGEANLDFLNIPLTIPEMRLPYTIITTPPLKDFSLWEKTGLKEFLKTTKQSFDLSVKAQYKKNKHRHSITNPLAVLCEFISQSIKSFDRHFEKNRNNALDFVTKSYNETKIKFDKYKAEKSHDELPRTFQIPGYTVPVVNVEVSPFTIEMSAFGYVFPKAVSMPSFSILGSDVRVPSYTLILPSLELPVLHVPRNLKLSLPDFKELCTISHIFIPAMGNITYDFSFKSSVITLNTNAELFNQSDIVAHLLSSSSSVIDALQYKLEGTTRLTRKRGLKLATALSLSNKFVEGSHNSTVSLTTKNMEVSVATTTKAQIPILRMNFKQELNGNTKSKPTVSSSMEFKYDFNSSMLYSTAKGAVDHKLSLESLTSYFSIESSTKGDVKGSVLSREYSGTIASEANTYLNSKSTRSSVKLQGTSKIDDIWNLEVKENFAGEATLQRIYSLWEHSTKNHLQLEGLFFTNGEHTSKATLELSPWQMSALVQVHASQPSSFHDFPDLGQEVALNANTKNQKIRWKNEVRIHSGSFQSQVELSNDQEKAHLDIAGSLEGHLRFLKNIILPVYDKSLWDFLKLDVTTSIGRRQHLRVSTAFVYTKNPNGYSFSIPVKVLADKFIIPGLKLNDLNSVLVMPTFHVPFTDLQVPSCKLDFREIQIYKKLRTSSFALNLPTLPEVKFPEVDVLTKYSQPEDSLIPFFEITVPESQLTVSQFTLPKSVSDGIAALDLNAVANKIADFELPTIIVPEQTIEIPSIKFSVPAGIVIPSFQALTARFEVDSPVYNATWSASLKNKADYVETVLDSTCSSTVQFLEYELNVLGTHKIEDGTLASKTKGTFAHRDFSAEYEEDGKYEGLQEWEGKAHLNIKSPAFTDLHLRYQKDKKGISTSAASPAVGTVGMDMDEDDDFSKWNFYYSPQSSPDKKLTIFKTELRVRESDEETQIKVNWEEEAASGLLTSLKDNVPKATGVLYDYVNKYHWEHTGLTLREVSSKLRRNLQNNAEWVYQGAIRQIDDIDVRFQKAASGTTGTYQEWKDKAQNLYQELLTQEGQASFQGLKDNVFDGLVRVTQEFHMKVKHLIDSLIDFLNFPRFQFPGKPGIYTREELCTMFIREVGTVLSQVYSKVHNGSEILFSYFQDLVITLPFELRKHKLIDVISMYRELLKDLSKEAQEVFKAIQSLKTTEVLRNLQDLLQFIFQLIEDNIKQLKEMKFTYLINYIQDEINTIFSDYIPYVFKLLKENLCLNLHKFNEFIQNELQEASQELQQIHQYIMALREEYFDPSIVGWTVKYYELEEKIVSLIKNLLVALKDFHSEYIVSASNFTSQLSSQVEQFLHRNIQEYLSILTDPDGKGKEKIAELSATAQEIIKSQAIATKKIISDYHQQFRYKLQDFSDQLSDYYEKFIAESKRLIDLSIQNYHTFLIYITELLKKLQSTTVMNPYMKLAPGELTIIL

B1: orticumab (antibody, human IgG1, lambda, V domains shown)
VH: EVQLLESGGGLVQPGGSLRLSCAASGFTFSNAWMSWVRQAPGKGLEWVSSISVGGHRTYYADSVKGRSTISRDNSKNTLYLQMNSLRAEDTAVYYCARIRVGPSGGAFDYWGQGTLVTVSS
VL: QSVLTQPPSASGTPGQRVTISCSGSNTNIGKNYVSWYQQLPGTAPKLLIYANSNRPSGVPDRFSGSKSGTSASLAISGLRSEDEADYYCASWDASLNGWVFGGGTKLTVLG
Take B1: the “IC50 for MCP-1 inhibition” value was ~10 nM.

For the origin of these results see US20240131153A1 (ABCENTRA, published 2024).
